Patent US20060257887A1

Target: GFP 1-10 OPT (Aequorea victoria) [GFP: P42212]
Assay: cell-based or functional assay

complementation rate (fold (decrease)): 5
Substance: HPS-GFP 11 M2 (3-hexulose 6-phosphate synthase fused to GFP S11 M2; L221H, F223S, T225N)
